Experimental findings from paper PMC2844433, “Polo-Like Kinase 2-Dependent Phosphorylation of NPM/B23 on Serine 4 Triggers Centriole Duplication” (PLoS ONE, 2010) are described below.

The assay addresses T1, Recombinant His-tagged NPM/B23 (UniProt P06748 1-294).
T1 construct: NPM/B23 (Nucleophosmin), bacterially produced, unphosphorylated; also called His-NPM/B23; His-tagged NPM/B23 WT; source: E. coli BL21, purified (Ni-NTA agarose)
The experiment in a line: pull-down; in vitro binding assay: Flag-Plk2 fragments immunoprecipitated from 293T cells, bound to Protein G sepharose, incubated with 15 µg recombinant His-NPM/B23 in PBS with 0.05% NP-40 for 2 h at 4°C; Western blot. The settings on record: both partners purified. For orientation: Immunoblotting shows a protein as a band on a membrane.

T1 sequence (P06748 whole entry): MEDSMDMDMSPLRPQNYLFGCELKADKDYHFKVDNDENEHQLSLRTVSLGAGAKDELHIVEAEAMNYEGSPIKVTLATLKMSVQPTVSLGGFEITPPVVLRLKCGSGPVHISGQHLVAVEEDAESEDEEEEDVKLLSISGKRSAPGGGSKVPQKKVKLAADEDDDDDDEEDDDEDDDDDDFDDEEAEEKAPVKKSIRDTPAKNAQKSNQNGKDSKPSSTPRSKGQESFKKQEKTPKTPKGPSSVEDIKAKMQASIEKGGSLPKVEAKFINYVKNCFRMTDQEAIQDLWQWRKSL

B1: Flag-Plk2-(aa 590–685) (domain or fragment, UniProt Q9NYY3 590-685, looked up)
chain: PSVTDIRRPRLYLLQWLKSDKALMMLFNDGTFQVNFYHDHTKIIICSQNEEYLLTYINEDRISTTFRLTTLLMSGCSSELKNRMEYALNMLLQRCN
notes: also called second Polo-box of Plk2; source: 293T, transfected, immunoprecipitated with anti-Flag antibodies
Regarding B1, the binding result is given as “binds”.
